Article PMC12335366

Experiments:
[1] = biological target: BG505 DS-SOSIP.664 stabilized soluble HIV-1 Env trimer (HIV-1 (clade A, strain BG505)) (UniProt Q2N0S6); experiment: negative stain electron microscopy
[2] = biological target: CH505 Env, on pseudovirus (HIV-1 (clade C, isolate CH505))
[3] = biological target: BG505 Env (unmutated), on pseudovirus (HIV-1 (clade A, strain BG505)) (UniProt Q2N0S6)

CH103 KN Fab (partially UCA-reverted CH103 mutant, E75K and D76N)
stoichiometry N (Fab per trimer) [1]: 1

mature CH103 Fab
stoichiometry N (Fabs per trimer) [1]: 2

B1: CH103 KN antibody (IgG; E75K and D76N in the heavy chain) (antibody, V domains shown)
V domain 1: QVQLQESGPGVVKSSETLSLTCTVSGGSMGGTYWSWLRLSPGKGLEWIGYIFHTGETNYSPSLKGRVSISVDTSKNQFSLRLRSVTAADTAVYFCASLPRGQLVNAYFRNWGRGSLVSVTA
V domain 2: SYELTQPPSVSVSPGQTATITCSGASTNVCWYQVKPGQSPEVVIFENYKRPSGIPDRFSGSKSGSTATLTIRGTQAIDEADYYCQVWDSFSTFVFGSGTQVTVL
neutralisation of CH505 pseudovirus (TZM-bl), decrease against mature CH103 [2]: > 3 fold
neutralisation of BG505 pseudovirus (TZM-bl), decrease against mature CH103 [3]: > 3 fold
